Experimental data: patent publication US20120082679A1 (Merck Sharp & Dohme, published 2012)
Like-named read-outs stand apart in the source and are kept apart here.

Key:
[1] = molecular target: T1, recombinant human PCSK9, V5-, His-tagged (human, UniProt Q8NBP7 31-692, limits assumed); assay: cell-based or functional assay
[2] = molecular target: T1, recombinant human PCSK9, V5-, His-tagged; assay: cell-based or functional assay; remark: listed apart in the source
[3] = molecular target: T2, V5-, His-tagged secreted alkaline phosphatase protein (SEAP) (UniProt P05187 23-511); assay: ELISA, immobilized V5-, His-tagged SEAP, Fab culture supernatant, HRP anti-Fab detection
T2 construct: Tag control antigen, expressed in the same cells as the PCSK9 antigen and similarly purified; not shown: V5 and His tags
T2 sequence (P05187 23-511): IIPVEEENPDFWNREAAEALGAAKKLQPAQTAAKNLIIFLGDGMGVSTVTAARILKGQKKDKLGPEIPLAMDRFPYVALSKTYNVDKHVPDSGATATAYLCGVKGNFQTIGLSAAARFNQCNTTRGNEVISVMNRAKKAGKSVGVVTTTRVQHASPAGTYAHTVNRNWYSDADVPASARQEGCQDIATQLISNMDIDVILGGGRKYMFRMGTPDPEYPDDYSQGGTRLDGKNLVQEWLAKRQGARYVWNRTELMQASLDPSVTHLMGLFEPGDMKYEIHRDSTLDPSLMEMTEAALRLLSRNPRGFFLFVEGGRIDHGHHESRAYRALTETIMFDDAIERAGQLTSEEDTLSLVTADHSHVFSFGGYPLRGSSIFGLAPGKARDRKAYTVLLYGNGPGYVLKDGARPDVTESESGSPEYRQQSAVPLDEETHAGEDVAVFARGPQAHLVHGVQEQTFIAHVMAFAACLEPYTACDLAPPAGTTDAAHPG
Protocol: Cultures of individual transformants were IPTG-induced and grown overnight for Fab expression. Culture supernatants (candidate Fabs) were incubated with purified V5-, His-tagged PCSK9 protein immobilized in wells of 96-well Nunc Maxisorp plates, washed with 0.1% Tween™ 20 in PBS using a plate washer, incubated with HRP-coupled anti-Fab antibody, and washed again with PBS/Tween™ 20. Bound HRP was detected by addition of […] substrated, and A₄₅₀ values of wells were read with a plate reader.
EsB antigen was bound to three wells of the plate and subsequently incubated with anti-EsB Fab. To control for Fabs reacting with the V5 or His tags of the recombinant PCSK9 antigen, parallel ELISAs were performed using V5-, His-tagged secreted alkaline phosphatase protein (SEAP) expressed in the same cells as the original PCSK9 antigen and similarly purified. Putative PCSK9-reactive Fabs were identified as yielding>3× background values when incubated with PCSK9 antigen but negative when incubated with SEAP. Clones scoring as PCSK9-reactive in the first round of screening were consolidated onto a single plate, re-grown in triplicate, re-induced with IPTG, and re-assayed in parallel ELISAs vs. PCSK9 and SEAP. Positive and negative controls were included as described above. Clones scoring positive in at least 2 of 3 replicates were carried forward into subsequent characterizations. In cases of known or suspected mixed preliminary clones, cultures were re-purified by streaking for single colonies on 2×YT plates with chloramphenicol, and liquid cultures from three or more separate colonies were assayed again by ELISAs in triplicate as described above.

[4] = molecular target: T1, recombinant human PCSK9, V5-, His-tagged; assay: SPR (Biacore 2000), Direct (PCSK9 immobilized, Fab in mobile phase), mean N = 2
[5] = molecular target: T1, recombinant human PCSK9, V5-, His-tagged; assay: cell-based or functional assay; remark: listed apart in the source
[6] = molecular target: T1, recombinant human PCSK9, V5-, His-tagged; assay: SPR (Biacore 2000), Direct & Ab Capture, mean N = 3
Protocol: SPR measurements were performed using a Biacore™ (Pharmacia Biosensor AB, Uppsala, Sweden) 2000 system. Sensor chip CM5 and Amine coupling kit for immobilization were from Biacore™.
Anti-Fab IgG (Human specific) was covalently coupled to surfaces 1 and 2 of a Sensor Chip CM5 via primary amine groups, using the immobilization wizard with the “Aim for immobilization” option. A target immobilization of 5000 RU was specified. The wizard uses a 7 minute activation with a 1:1 mixture of 100 mM NHS and 400 mM EDC; injects the ligand in several pulses to achieve the desired level, then deactivates the remaining surface with a 7 minute pulse of ethanolamine.
Anti-PCSK9 Fabs were captured on capture surface 2 and surface 1 was used as a reference for kinetic studies of Fab:PCSK9 interactions. Fab was captured by flowing a 500 ng/ml solution at 5 μl/min for 1-1.5 minutes to reach a target RL for an Rₘₐₓ of 100-150 RU for the reaction. 5-10 concentrations of hPCSK9v5H is or mPCSK9v5H is antigens were flowed across the surface at 30 μl/minute for 3-4 minutes. 15-60 minutes dissociation time was allowed before regeneration of the Anti-Fab surface with a 30 second pulse of 10 mM glycine pH 2.0.

[7] = molecular target: T1, recombinant human PCSK9, V5-, His-tagged; assay: cell-based or functional assay; remark: listed apart in the source
[8] = molecular target: T1, recombinant human PCSK9, V5-, His-tagged; assay: cell-based or functional assay; remark: listed apart in the source
[9] = molecular target: T1, recombinant human PCSK9, V5-, His-tagged; assay: cell-based or functional assay; remark: listed apart in the source

T1 sequence (Q8NBP7 31-692 limits assumed): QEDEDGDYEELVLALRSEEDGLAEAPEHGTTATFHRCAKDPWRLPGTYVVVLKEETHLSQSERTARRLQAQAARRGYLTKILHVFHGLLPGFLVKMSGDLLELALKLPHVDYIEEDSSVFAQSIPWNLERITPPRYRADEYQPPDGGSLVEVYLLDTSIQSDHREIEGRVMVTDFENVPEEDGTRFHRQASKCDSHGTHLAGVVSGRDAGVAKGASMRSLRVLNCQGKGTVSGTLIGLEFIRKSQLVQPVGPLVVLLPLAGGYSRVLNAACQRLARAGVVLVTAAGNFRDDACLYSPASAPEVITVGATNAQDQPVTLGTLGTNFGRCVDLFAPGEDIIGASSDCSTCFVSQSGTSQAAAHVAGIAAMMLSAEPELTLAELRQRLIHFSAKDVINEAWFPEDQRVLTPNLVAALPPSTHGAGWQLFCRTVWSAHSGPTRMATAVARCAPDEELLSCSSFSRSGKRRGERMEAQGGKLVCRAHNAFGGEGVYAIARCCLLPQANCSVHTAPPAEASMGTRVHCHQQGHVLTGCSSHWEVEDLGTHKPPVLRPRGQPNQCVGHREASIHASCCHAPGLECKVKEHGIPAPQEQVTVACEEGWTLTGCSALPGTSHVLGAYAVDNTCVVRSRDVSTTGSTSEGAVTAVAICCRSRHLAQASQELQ

inhibition of PCSK9-dependent inhibition of cellular LDL uptake (Exopolar assay) [1] [%]	IC50; Fab titrated against fixed PCSK9 (25 µg/ml), recovery of cellular diI-LDL uptake (Exopolar assay) [2] [nM]	binding result [3]	Kd [4] [nM]	koff [4] [s⁻¹]	kon [4] [M⁻¹ s⁻¹]	IC50; Fab titrated against fixed PCSK9 (25 µg/ml), recovery of cellular diI-LDL uptake (Exopolar assay) [5] [nM]	Kd [6] [nM]	koff [6] [s⁻¹]	kon [6] [M⁻¹ s⁻¹]	IC50; Fab titrated against fixed PCSK9 (25 µg/ml), recovery of cellular diI-LDL uptake (Exopolar assay) [7] [nM]	IC50; Fab titrated against fixed PCSK9 (25 µg/ml), recovery of cellular diI-LDL uptake (Exopolar assay) [8] [nM]	IC50; Fab titrated against fixed PCSK9 (25 µg/ml), recovery of cellular diI-LDL uptake (Exopolar assay) [9] [nM]	Binder
23	107	no binding	–	–	–	–	–	–	–	–	–	–	3CX2A06 (Fab, V domains shown, No SPR values are printed for this Fab; also called 3CX2A06 Fab) VH: QVQLVQSGAEVKKPGESLKISCKGSGYSFSNFWIAWVRQMPGKGLEWMGIIDPSDSWTRYSPSFQGQVTISADKSISTAYLQWSSLKASDTAMYYCARGDGQDFDNWGQGTLVTVSS VL: DIQMTQSPSSLSASVGDRVTITCRASQNINSYLNWYQQKPGKAPKLLIYAASSLQSGVPSRFSGSGSGTDFTLTISSLQPEDFAVYYCLQNYDLPNTFGQGTKVEIKR
23	–	no binding	7.01	0.000876	166000	289	–	–	–	–	–	–	3CX3D02 (Fab, V domains shown, also called 3CX3D02 Fab) VH: QVQLVQSGAEVKKPGESLKISCKGSGYSFTNSWIGWVRQMPGKGLEWMGIIYPSDSYTIYSPSFQGQVTISADKSISTAYLQWSSLKASDTAMYYCARGGGYYYALMDVWAQGTLVTVSS VL: DIQMTQSPSSLSASVGDRVTITCRASQTISTWLNWYQQKPGKAPKLLIYAASSLQSGVPSRFSGSGSGTDFTLTISSLQPEDFATYYCLQDSSLPLTFGQGTKVEIKR
61	–	no binding	–	–	–	–	2.97	0.000685	233000	127	–	–	3CX4B08 (Fab, V domains shown, also called 3CX4B08 Fab) VH: QVQLVESGGGLVQPGGSLRLSCAASGFTFSNYTMNWVRQAPGKGLEWVSFISSSSSETYYADSVKGRFTISRDNSKNTLYLQMNSLRAEDTAVYYCARGYGDMVDLWGQGTLVTVSS VL: DIELTQPPSVSVAPGQTARISCSGDSIPTYYVAWYQQKPGQAPVLVIYSDTDRPSGIPERFSGSNSGNTATLTISGTQAEDEADYYCQSFDNHGYHVFGGGTKLTVLG
53	–	no binding	–	–	–	–	0.55	0.000176	335000	–	267	–	1CX1G08 (Fab, V domains shown, also called 1CX1G08 Fab) VH: QVQLVESGGGLVQPGGSLRLSCAASGFTFSDYWVSWVRQAPGKGLEWVSFISYDGSSTYYADSVKGRFTISRDNSKNTLYLQMNSLRAEDTAVYYCARTYFEGVDVWGQGTLVTVSS VL: DIELTQPPSVSVAPGQTARISCSGDNIGTYYVHWYQQKPGQAPVLVIYDDSNRPSGIPERFSGSNSGNTATLTISGTQAEDEADYYCGTWDNTSFNLVFGGGTKLTVLG
25	–	no binding	23.1	0.000642	28000	–	–	–	–	–	–	1250	3BX5C01 (Fab, V domains shown, also called 3BX5C01 Fab) VH: QVQLVQSGAEVKKPGESLKISCKGSGYSFTSYGISWVRQMPGKGLEWMGMIDPSDSFTTYSPSFQGQVTISADKSISTAYLQWSSLKASDTAMYYCARGYYFTYALQPMDHWGQGTLVTVSS VL: DIELTQPPSVSVAPGQTARISCSGDNLRDYIVHWYQQKPGQAPVLVIYDDSNRPSGIPERFSGSNSGNTATLTISGTQAEDEADYYCGFDNGGDIDVFGGGTKLTVLG
